{"source": "paper PMC10348774", "proteins": {"B1": {"name": "ADAM metallopeptidase domain 10 (ADAM10): tunicamycin (protein)", "parent chain": "MVLLRVLILLLSWAAGMGGQYGNPLNKYIRHYEGLSYNVDSLHQKHQRAKRAVSHEDQFLRLDFHAHGRHFNLRMKRDTSLFSDEFKVETSNKVLDYDTSHIYTGHIYGEEGSFSHGSVIDGRFEGFIQTRGGTFYVEPAERYIKDRTLPFHSVIYHEDDINYPHKYGPQGGCADHSVFERMRKYQMTGVEEVTQIPQEEHAANGPELLRKKRTTSAEKNTCQLYIQTDHLFFKYYGTREAVIAQISSHVKAIDTIYQTTDFSGIRNISFMVKRIRINTTADEKDPTNPFRFPNIGVEKFLELNSEQNHDDYCLAYVFTDRDFDDGVLGLAWVGAPSGSSGGICEKSKLYSDGKKKSLNTGIITVQNYGSHVPPKVSHITFAHEVGHNFGSPHDSGTECTPGESKNLGQKENGNYIMYARATSGDKLNNNKFSLCSIRNISQVLEKKRNNCFVESGQPICGNGMVEQGEECDCGYSDQCKDECCFDANQPEGRKCKLKPGKQCSPSQGPCCTAQCAFKSKSEKCRDDSDCAREGICNGFTALCPASDPKPNFTDCNRHTQVCINGQCAGSICEKYGLEECTCASSDGKDDKELCHVCCMKKMDPSTCASTGSVQWSRHFSGRTITLQPGSPCNDFRGYCDVFMRCRLVDADGPLARLKKAIFSPELYENIAEWIVAHWWAVLLMGIALIMLMAGFIKICSVHTPSSNPKLPPPKPLPGTLKRRRPPQPIQQPQRQRPRESYQMGHMRR"}, "B2": {"name": "ADAM metallopeptidase domain 10 (ADAM10): DPAGT1 silencing (protein)", "parent chain": "B1 parent chain"}, "B3": {"name": "ADAM metallopeptidase domain 10 (ADAM10): N278Q (protein)", "parent chain": "B1 parent chain"}, "B4": {"name": "ADAM metallopeptidase domain 10 (ADAM10): DPAGT1 inhibition/knockdown + Eer I or MG132 (protein)", "parent chain": "B1 parent chain"}, "B5": {"name": "ADAM metallopeptidase domain 10 (ADAM10): N267Q (protein)", "parent chain": "B1 parent chain"}}, "key": {"[1]": {"test": "flow cytometry of membrane ADAM10", "details": "glycan lost; control: control SK-BR-3"}, "[2]": {"test": "IB of endogenous pre- and matADAM10", "details": "glycan lost; control: untreated / vector SK-BR-3"}, "[3]": {"test": "IB and IF with ER marker Calnexin", "details": "glycan lost; control: wild type (implied)"}, "[4]": {"test": "IB after Eer I or MG132 rescue", "details": "glycan lost; control: untreated SK-BR-3"}, "[5]": {"test": "IB of precursor and mature forms", "details": "glycan lost; control: wild type (implied)"}}}
{"protein": "B1", "values": [{"measurement": "localisation_or_trafficking", "setting": "[1]", "result": "decreases"}, {"measurement": "expression_or_secretion", "setting": "[2]", "result": "decreases"}]}
{"protein": "B2", "values": [{"measurement": "localisation_or_trafficking", "setting": "[1]", "result": "decreases"}, {"measurement": "expression_or_secretion", "setting": "[2]", "result": "decreases"}]}
{"protein": "B3", "values": [{"measurement": "localisation_or_trafficking", "setting": "[3]", "result": "changes"}]}
{"protein": "B4", "values": [{"measurement": "other: proteolytic processing", "setting": "[4]", "result": "abolishes"}]}
{"protein": "B5", "values": [{"measurement": "other: proteolytic processing", "setting": "[5]", "result": "no change"}]}
